Test results reported in patent US20110268740A1.

B1: scFv-D005-msFcγ2c (Fc fusion)
chain: DADPAQAAELVMTQSPDSLAVSLGERATINCKSSQSVLYTSNNKNYLGWYQQKPGQPPNLLIYWASTRESGVPDRFSGSGSGTDFTLTINSVQAEDVAVYYCQQYFMTPITFGQGTRLEIKGGSSRSSSSGGGGSGGGGEVQLVESGGALVQPGRSLRLSCRTSGLNFGDYPINWVRQAPGKGLEWVGFIKSKSYGVTTEFAASVEGRFTISRDDSRGIAYLQMNSLKTEDTAVYYCTSSSGFLYYFDYWGQGTLVTVSSASTKGPSVTSGQAGRKLEPRVPITQNPCPPLKECPPCAAPDLLGGPSVFIFPPKIKDVLMISLSPMVTCVVVDVSEDDPDVQISWFVNNVEVHTAQTQTHREDYNSTLRVVSALPIQHQDWMSGKEFKCKVNNRALPSPIEKTISKPRGPVRAPQVYVLPPPAEEMTKKEFSLTCMITGFLPAEIAVDWTSNGRTEQNYKNTATVLDSDGSYFMYSKLRVQKSTWERGSLFACSVVHEGLHNHLTTKTISRSLGK
B2: scFv-E040-msFcγ2c (Fc fusion)
chain: DADPAQAAELVMTQSPDSLAVSLGERATINCKSSQSVLYSSNNENYLAWYQQKPGQPPKLLIYWASTRESGVPDRFSGSGSGTDFTLTINSVQAEDVAVYYCQQYFMTPITFGQGTRLEIKGGSSRSSSSGGGGSGGGGEVQLLESGGALVQPGRSLRLSCRTSGLNFGDYPINWVRQAPGKGLEWVGFIKSKSYGVTTEFAASVEGRFTISRDDSRGIAYLQMNSLKTEDTAVYYCTSSSGFLYYFDYWGQGTLVTVSSASTKGPSVTSGQAGRKLEPRVPITQNPCPPLKECPPCAAPDLLGGPSVFIFPPKIKDVLMISLSPMVTCVVVDVSEDDPDVQISWFVNNVEVHTAQTQTHREDYNSTLRVVSALPIQHQDWMSGKEFKCKVNNRALPSPIEKTISKPRGPVRAPQVYVLPPPAEEMTKKEFSLTCMITGFLPAEIAVDWTSNGRTEQNYKNTATVLDSDGSYFMYSKLRVQKSTWERGSLFACSVVHEGLHNHLTTKTISRSLGK
B3: M2e-VN (peptide)
peptide: SLLTEVETPTRNEWECRCSDSSD
modifications: not checked
B4: scFv-F052-msFcγ2c (Fc fusion)
chain: DADPAQAAERVMTQSPDALAVSLGERATINCKSSQSLLYSSNNKNYLAWYQKKPGQPPKLLIYWASTRESGVPDRFSGSGSGTEFTLTINSVQAEDVAVYYCQQYFMTPITFGQGTKLEIKGGSSRSSSSGGGGSGGGGQVQLQESGGALVQPGRSLRLSCRTSGLNFGDYPINWVRQAPGKGLEWVGFIKSKSYGVTTEFAASVEGRFTISRDDSRGIAYLQMNSLKTEDTAVYYCTSSSGFLYYFDYWGQGTLVTVSSASTKGPSVTSGQAGRKLEPRVPITQNPCPPLKECPPCAAPDLLGGPSVFIFPPKIKDVLMISLSPMVTCVVVDVSEDDPDVQISWFVNNVEVHTAQTQTHREDYNSTLRVVSALPIQHQDWMSGKEFKCKVNNRALPSPIEKTISKPRGPVRAPQVYVLPPPAEEMTKKEFSLTCMITGFLPAEIAVDWTSNGRTEQNYKNTATVLDSDGSYFMYSKLRVQKSTWERGSLFACSVVHEGLHNHLTTKTISRSLGK

Key:
[1] = molecular target: M2e-VN (Influenza A virus A/VN/1203/04 (H5N1)); assay: ELISA, apparent affinity, purified scFv-msFcγ2c on immobilised M2e-VN

| Binder | EC50 [1] | EC50 (scFv-D005-msFcγ2c) | EC50 (scFv-E040-msFcγ2c) | EC50 (scFv-F052-msFcγ2c) |
| --- | --- | --- | --- | --- |
| B1 | 0.0515 nM | – | – | – |
| B2 | 0.0464 nM | – | – | – |
| B3 | – | 32.5 µM | 43.2 µM | 50.8 µM |
| B4 | 0.0459 nM | – | – | – |
